{"source": "paper PMC3027617", "about": "(2011)", "molecular_target": "2F5 epitope scaffold ES1", "assay": "SPR"}
{"binder": "2F5 monoclonal antibody (antibody, V domains shown) VH: RITLKESGPPLVKPTQTLTLTCSFSGFSLSDFGVGVGWIRQPPGKALEWLAIIYSDDDKRYSPSLNTRLTITKDTSKNQVVLVMTRVSPVDTATYFCAHRRGPTTLFGVPIARGPVNAMDVWGQGITVTISS VL: ALQLTQSPSSLSASVGDRITITCRASQGVTSALAWYRQKPGSPPQLLIYDASSLESGVPSRFSGSGSGTEFTLTISTLRPEDFATYYCQQLHFYPHTFGGGTRVDVR", "values": [{"measurement": "koff", "result": 0.00109, "unit": "s⁻¹"}]}
